Experimental data: paper PMC8896503

Columns and labels:
Test in all cases: PBM
[1] = target: T1, TBL1XR1 complex (Homo sapiens (THP-1-derived macrophages)) (UniProt Q9BZK7); details: IFNg+LPS extract, Nuclear extract PBM (PMA-differentiated THP-1; untreated, LPS 45 min, or IFNg+LPS), antibody detection, buffer, salt, pH and temperature not in the material
T1 sequence: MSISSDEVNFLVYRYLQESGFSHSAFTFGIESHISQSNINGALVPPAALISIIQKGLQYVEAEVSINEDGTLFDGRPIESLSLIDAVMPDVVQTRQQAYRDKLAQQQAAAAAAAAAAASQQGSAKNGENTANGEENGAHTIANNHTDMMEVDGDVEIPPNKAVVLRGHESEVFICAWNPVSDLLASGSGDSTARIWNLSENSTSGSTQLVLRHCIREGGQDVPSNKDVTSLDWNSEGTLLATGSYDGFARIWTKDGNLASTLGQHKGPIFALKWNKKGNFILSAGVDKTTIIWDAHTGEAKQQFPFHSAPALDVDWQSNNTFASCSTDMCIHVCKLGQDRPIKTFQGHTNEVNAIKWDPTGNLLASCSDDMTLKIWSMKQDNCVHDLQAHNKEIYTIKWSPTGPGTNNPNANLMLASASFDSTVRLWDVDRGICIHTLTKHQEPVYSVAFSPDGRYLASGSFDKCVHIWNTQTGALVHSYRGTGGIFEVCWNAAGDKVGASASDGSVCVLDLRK

[2] = target: RBBP5 complex (Homo sapiens (THP-1-derived macrophages)) (UniProt Q15291); details: Nuclear extract PBM (PMA-differentiated THP-1; untreated, LPS 45 min, or IFNg+LPS), antibody detection, buffer, salt, pH and temperature not in the material
Sequence of RBBP5 complex (Homo sapiens (THP-1-derived macrophages)) (Q15291 whole entry, one chain of several): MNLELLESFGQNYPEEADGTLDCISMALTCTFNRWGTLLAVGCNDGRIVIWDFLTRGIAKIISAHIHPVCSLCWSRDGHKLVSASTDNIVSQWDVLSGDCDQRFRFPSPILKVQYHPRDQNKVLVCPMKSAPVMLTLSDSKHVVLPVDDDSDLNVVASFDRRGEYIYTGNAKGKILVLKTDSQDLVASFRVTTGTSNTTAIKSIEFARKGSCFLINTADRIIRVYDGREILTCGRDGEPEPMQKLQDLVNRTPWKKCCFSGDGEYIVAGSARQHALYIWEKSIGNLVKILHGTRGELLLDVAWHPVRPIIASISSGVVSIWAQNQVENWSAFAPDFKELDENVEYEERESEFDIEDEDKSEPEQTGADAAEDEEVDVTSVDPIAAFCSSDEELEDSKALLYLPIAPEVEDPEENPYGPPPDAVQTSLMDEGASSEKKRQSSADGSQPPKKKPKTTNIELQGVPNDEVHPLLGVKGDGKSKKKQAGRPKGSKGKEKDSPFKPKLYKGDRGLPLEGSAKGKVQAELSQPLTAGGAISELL

[3] = target: GCN5 complex (Homo sapiens (THP-1-derived macrophages)) (UniProt Q92830); details: IFNg+LPS extract; Nuclear extract PBM (PMA-differentiated THP-1; untreated, LPS 45 min, or IFNg+LPS), antibody detection; buffer, salt, pH and temperature not in the material
[4] = target: p65 (RELA, NF-kB) (Homo sapiens (THP-1-derived macrophages)) (UniProt Q04206); details: Nuclear extract PBM (PMA-differentiated THP-1; untreated, LPS 45 min, or IFNg+LPS), antibody detection, buffer, salt, pH and temperature not in the material
Sequence of p65 (RELA, NF-kB) (Homo sapiens (THP-1-derived macrophages)) (Q04206 whole entry): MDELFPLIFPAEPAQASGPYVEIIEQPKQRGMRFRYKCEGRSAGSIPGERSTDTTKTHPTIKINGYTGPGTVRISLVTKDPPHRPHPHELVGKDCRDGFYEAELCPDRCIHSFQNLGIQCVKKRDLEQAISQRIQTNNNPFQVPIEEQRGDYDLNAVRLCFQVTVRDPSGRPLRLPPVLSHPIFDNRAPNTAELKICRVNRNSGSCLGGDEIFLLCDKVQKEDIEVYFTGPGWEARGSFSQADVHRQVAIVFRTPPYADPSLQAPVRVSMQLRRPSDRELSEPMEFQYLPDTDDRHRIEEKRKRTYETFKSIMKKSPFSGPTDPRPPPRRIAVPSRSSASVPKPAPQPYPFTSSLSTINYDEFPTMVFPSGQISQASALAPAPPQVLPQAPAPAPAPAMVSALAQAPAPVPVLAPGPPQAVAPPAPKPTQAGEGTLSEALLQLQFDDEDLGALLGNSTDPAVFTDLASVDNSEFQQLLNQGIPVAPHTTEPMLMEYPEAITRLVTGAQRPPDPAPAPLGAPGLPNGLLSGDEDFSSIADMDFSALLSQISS

[5] = target: T2, IRF3 (Homo sapiens (THP-1-derived macrophages)) (UniProt Q14653); details: LPS 45 min extract; likely tethered by NF-kB; Nuclear extract PBM (PMA-differentiated THP-1; untreated, LPS 45 min, or IFNg+LPS), antibody detection; buffer, salt, pH and temperature not in the material
T2 sequence: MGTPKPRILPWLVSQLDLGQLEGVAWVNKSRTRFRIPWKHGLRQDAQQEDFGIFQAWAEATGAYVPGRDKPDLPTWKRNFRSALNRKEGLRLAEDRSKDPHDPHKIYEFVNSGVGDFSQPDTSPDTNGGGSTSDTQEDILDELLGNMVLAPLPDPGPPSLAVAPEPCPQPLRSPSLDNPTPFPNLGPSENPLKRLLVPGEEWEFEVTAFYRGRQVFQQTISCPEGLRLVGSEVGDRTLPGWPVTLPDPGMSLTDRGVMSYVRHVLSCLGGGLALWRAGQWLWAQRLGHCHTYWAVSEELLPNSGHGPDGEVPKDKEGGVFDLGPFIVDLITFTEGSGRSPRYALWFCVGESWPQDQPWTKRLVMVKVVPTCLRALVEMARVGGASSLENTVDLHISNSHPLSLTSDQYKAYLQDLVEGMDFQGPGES

[6] = target: p300 complex (Homo sapiens (THP-1-derived macrophages)) (UniProt Q09472); details: Nuclear extract PBM (PMA-differentiated THP-1; untreated, LPS 45 min, or IFNg+LPS), antibody detection, buffer, salt, pH and temperature not in the material
Sequence of p300 complex (Homo sapiens (THP-1-derived macrophages)) (Q09472 whole entry, one chain of several): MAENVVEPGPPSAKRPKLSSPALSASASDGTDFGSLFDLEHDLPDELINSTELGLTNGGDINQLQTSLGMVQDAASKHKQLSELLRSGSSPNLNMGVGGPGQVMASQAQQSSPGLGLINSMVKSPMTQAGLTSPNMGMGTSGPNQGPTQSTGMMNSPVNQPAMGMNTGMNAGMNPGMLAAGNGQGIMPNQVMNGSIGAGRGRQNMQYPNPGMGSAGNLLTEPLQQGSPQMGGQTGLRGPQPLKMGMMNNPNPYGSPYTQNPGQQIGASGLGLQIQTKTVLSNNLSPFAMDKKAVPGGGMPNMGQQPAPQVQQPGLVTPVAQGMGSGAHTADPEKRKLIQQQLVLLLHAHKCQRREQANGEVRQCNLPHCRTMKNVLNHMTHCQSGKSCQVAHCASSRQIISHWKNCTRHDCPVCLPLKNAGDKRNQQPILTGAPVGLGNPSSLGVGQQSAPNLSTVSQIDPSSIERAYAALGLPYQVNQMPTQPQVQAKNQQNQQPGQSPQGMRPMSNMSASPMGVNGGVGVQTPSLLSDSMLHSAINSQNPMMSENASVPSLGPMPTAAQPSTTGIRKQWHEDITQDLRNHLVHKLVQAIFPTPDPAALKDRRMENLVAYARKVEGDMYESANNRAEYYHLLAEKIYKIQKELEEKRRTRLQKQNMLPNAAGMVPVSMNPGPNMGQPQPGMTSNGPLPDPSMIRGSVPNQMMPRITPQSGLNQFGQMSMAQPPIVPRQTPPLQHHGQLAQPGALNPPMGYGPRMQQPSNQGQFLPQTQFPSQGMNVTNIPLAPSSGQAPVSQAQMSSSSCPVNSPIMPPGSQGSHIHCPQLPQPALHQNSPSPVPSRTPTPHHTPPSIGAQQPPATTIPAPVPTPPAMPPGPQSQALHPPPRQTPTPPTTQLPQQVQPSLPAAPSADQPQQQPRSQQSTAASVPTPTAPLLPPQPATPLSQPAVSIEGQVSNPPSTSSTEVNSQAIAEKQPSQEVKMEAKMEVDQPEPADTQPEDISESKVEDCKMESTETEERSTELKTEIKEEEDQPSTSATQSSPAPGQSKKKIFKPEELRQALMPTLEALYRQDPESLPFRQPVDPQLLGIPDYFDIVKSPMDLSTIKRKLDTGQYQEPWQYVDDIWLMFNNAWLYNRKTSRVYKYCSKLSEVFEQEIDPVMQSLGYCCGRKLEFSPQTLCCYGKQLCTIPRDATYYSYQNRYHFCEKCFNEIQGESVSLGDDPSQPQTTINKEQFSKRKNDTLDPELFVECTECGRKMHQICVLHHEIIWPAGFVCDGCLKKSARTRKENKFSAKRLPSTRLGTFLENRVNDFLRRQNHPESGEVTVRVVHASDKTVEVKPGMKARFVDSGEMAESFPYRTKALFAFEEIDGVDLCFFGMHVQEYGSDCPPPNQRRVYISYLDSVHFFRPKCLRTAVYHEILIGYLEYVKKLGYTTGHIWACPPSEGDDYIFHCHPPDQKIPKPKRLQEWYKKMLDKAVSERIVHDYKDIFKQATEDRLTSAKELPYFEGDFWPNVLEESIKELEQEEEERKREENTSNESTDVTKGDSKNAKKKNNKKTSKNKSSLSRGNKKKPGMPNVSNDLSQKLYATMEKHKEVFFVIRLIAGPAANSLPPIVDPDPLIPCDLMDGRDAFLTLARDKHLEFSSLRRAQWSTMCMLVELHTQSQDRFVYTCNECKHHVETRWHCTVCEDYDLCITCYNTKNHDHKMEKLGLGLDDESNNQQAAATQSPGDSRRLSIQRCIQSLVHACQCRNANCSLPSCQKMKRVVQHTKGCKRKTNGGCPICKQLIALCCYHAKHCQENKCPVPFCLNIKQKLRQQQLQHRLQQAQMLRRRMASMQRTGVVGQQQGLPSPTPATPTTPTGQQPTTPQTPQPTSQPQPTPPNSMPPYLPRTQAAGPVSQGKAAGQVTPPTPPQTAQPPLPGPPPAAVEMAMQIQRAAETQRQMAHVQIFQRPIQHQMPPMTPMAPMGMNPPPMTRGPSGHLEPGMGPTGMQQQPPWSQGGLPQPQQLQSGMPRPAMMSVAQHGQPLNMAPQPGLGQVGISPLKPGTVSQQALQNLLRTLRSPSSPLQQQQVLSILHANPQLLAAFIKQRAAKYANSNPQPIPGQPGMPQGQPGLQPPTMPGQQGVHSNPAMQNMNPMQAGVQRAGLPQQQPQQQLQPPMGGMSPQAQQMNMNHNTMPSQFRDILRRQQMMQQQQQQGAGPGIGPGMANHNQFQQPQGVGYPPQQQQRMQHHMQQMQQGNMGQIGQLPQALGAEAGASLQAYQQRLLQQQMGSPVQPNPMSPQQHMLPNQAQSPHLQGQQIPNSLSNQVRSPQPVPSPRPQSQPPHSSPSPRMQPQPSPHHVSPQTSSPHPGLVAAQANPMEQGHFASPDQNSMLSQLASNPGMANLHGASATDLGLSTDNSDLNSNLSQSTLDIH

[7] = target: PU.1 (Homo sapiens (THP-1-derived macrophages)) (UniProt P17947); details: IFNg+LPS extract; Nuclear extract PBM (PMA-differentiated THP-1; untreated, LPS 45 min, or IFNg+LPS), antibody detection; buffer, salt, pH and temperature not in the material
[8] = target: SMARCA4/BRG1 complex (Homo sapiens (THP-1-derived macrophages)) (UniProt P51532); details: IFNg+LPS extract, Nuclear extract PBM (PMA-differentiated THP-1; untreated, LPS 45 min, or IFNg+LPS), antibody detection, buffer, salt, pH and temperature not in the material
Sequence of SMARCA4/BRG1 complex (Homo sapiens (THP-1-derived macrophages)) (P51532 whole entry, one chain of several): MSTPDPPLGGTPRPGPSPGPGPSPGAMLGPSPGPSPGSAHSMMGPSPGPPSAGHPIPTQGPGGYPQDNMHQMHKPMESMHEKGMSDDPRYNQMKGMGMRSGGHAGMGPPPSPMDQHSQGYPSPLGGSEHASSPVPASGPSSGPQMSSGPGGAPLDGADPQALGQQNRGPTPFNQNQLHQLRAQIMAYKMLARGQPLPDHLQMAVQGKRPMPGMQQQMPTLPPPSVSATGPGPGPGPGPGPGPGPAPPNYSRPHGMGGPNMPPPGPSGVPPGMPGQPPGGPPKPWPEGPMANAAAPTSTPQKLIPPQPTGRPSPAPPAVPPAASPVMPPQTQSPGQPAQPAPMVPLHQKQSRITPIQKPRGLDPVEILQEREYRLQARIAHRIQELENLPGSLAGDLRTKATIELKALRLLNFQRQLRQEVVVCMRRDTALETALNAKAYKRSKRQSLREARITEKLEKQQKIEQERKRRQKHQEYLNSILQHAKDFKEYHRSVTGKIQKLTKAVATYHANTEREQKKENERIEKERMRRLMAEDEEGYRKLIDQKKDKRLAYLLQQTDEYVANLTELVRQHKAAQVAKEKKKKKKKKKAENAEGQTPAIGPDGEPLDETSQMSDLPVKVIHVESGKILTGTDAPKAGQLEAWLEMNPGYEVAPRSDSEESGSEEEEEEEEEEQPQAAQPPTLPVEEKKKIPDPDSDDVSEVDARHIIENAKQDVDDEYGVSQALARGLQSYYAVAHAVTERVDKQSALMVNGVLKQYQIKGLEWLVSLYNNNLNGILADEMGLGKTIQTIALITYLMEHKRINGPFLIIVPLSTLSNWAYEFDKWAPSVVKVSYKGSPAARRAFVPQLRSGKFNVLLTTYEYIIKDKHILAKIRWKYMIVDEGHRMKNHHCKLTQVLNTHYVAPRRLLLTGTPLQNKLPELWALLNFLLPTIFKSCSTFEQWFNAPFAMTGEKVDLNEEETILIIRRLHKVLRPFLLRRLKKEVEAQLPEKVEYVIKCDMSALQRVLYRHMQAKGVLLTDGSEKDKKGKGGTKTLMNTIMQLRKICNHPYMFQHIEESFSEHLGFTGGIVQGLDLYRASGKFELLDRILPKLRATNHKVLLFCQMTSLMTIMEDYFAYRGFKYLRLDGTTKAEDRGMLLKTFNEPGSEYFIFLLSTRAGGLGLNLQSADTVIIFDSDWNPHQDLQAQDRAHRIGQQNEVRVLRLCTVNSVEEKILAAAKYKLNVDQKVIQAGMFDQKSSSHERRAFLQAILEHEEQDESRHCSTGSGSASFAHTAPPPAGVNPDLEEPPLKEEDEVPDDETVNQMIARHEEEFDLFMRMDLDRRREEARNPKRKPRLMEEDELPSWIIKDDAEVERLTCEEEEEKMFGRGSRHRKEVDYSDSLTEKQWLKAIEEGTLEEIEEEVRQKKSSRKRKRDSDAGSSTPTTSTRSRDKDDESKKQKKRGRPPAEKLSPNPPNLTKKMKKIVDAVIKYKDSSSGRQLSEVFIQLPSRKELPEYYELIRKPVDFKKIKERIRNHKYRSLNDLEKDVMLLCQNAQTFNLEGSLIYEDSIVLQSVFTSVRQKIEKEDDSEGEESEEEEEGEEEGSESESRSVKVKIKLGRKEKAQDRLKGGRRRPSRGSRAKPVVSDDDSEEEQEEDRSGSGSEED

[9] = not recruited or below detection

In the case of “GAAATTTAGAACAGAAAGTGAAACCA (double strand) [rs10833823 REF (A)]”, the binding signal [1] is reported as 9.71 Z score, the binding signal ([2]; IFNg+LPS extract) is reported as 10.6 Z score and the binding signal [3] is reported as 1.54 Z score.

“GCCTAGCCATGTTGCAGACTCGAAGGTATTATCTAGGTCTTGATTCGCTTGACGCTGCTG (double strand) [CXCL10 tile 8]” showed a binding signal ([4]; LPS 45 min extract) of 0.079 Z score.

Work on “GCCTAGTGGGGAAGTCCCATGTTGCAGACTCGCTAGGTCTTGATTCGCTTGACGCTGCTG (double strand) [CXCL10 tile 6]” yielded a binding signal ([4]; LPS 45 min extract) of 14.3 Z score.

“GCCTAGCCTGCTGGCTGTTCCTGGGGAAGTCCCTAGGTCTTGATTCGCTTGACGCTGCTG (double strand) [CXCL10 tile 3]” gave a binding signal [5] of 3.17 Z score, a binding signal ([2]; LPS 45 min extract) of -1.16 Z score and a binding signal ([2]; untreated extract) of -0.828 Z score. It also gave a binding signal ([4]; LPS 45 min extract) of 20.9 Z score, a binding signal ([4]; untreated extract) of 7.49 Z score and a binding signal ([6]; LPS 45 min extract, replicate 1 (replicate 2: 3.237)) of 3.75 Z score. The binding signal ([6]; untreated extract, replicate 1 (replicate 2: 0.462)) was -0.59 Z score.

“GAAATTTAGAACGGAAAGTGAAACCA (double strand) [rs10833823 non-REF (G)]” gave a binding signal [1] of 28.5 Z score, a binding signal ([2]; IFNg+LPS extract) of 15.8 Z score and a binding signal [3] of 3.36 Z score.

“GCCTAGAAGTCCCATGTTGCAGACTCGAAGGTCTAGGTCTTGATTCGCTTGACGCTGCTG (double strand) [CXCL10 tile 7]” gave a binding signal ([4]; LPS 45 min extract) of 0.56 Z score.

With “GCCTAGGACTCGAAGGTATTATTTATTGTAGCCTAGGTCTTGATTCGCTTGACGCTGCTG (double strand) [CXCL10 tile 10]” the binding signal ([4]; LPS 45 min extract) was -0.567 Z score.

In the case of “TGATGCAATGAAATGGGGAAGTATTA (double strand) [rs11950944 non-REF (A)]”, the binding signal [7] is reported as 5.99 Z score, the binding signal [1] is reported as 2.61 Z score and the binding signal [8] is reported as 2.99 Z score. It also gave a binding signal ([6]; IFNg+LPS extract) of 2.36 Z score.

In the case of “GCCTAGGAAGGTATTATTTATTGTAGCCTCCACTAGGTCTTGATTCGCTTGACGCTGCTG (double strand) [CXCL10 tile 11]”, the binding signal ([4]; LPS 45 min extract) is reported as -1.38 Z score.

“GCCTAGCTTAGCAAAACCTGCTGGCTGTTCCTCTAGGTCTTGATTCGCTTGACGCTGCTG (double strand) [CXCL10 tile 1]” gave a binding signal ([4]; LPS 45 min extract) of 0.046 Z score.

“TGATGCAATGAAGTGGGGAAGTATTA (double strand) [rs11950944 REF (G)]” showed a binding signal [7] of 4.04 Z score, a binding signal [1, 9] of 0.37 Z score and a binding signal [8, 9] of -0.38 Z score. For the same sequence, the binding signal ([6]; IFNg+LPS extract, not recruited or below detection) was -0.13 Z score.

With “GCCTAGTATTATTTATTGTAGCCTCCAAGTTACTAGGTCTTGATTCGCTTGACGCTGCTG (double strand) [CXCL10 tile 12]” the binding signal ([4]; LPS 45 min extract) was -0.454 Z score.

With “GCCTAGGTTCCTGGGGAAGTCCCATGTTGCAGCTAGGTCTTGATTCGCTTGACGCTGCTG (double strand) [CXCL10 tile 5]” the binding signal ([4]; LPS 45 min extract) was 8.52 Z score.

For “GCCTAGTTGCAGACTCGAAGGTATTATTTATTCTAGGTCTTGATTCGCTTGACGCTGCTG (double strand) [CXCL10 tile 9]”, the binding signal ([4]; LPS 45 min extract) was 0.218 Z score.

In the case of “GCCTAGCAAAACCTGCTGGCTGTTCCTGGGGACTAGGTCTTGATTCGCTTGACGCTGCTG (double strand) [CXCL10 tile 2]”, the binding signal ([4]; LPS 45 min extract) is reported as -0.374 Z score.

Work on “GCCTAGTGGCTGTTCCTGGGGAAGTCCCATGTCTAGGTCTTGATTCGCTTGACGCTGCTG (double strand) [CXCL10 tile 4]” yielded a binding signal ([4]; LPS 45 min extract) of 15 Z score.
